Data: JP2017222678A (dated 2017)

T1: ヒトTFPI (human tissue factor pathway inhibitor; American Diagnostica) (human, UniProt P10646 29-304, limits assumed)
T1 construct: Coated on plates (ELISA) or amine-coupled to a CM5 chip (Biacore); also called h-TFPI; hTFPI
T1 sequence (looked up): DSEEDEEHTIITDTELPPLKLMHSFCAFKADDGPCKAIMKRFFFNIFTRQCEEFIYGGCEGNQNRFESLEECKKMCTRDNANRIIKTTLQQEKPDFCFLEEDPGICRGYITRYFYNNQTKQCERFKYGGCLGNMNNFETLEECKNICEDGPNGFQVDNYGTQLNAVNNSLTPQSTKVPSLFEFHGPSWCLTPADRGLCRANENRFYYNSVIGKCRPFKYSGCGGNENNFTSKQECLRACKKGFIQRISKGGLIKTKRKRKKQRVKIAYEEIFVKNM


molecular target: T1, ヒトTFPI (human tissue factor pathway …); assay: ELISA, Fab in bacterial lysate on coated human TFPI

| binding result | Binder |
| --- | --- |
| binds | TP-3E1 (Fab, V domains shown, HuCAL Gold human Fab from E. coli TG1) VH: QVQLVESGGGLVQPGGSLRLSCAASGFTFSNYAMTWVRQAPGKGLEWVSVISSVGSNTYYADSVKGRFTISRDNSKNTLYLQMNSLRAEDTAVYYCARPTKAGRTWWWGPYMDVWGQGTLVTVSS VL: DIELTQPPSVSVAPGQTARISCSGDNIGSYYAYWYQQKPGQAPVLVIYDDSNRPSGIPERFSGSNSGNTATLTISGTQAEDEADYYCQSYDSTGLLVFGGGTKLTVLG |
| binds | TP-2G4 (Fab, V domains shown, HuCAL Gold human Fab from E. coli TG1) VH: QVQLVESGGGLVQPGGSLRLSCAASGFTFSSYAMTWVRQAPGKGLEWVSNISYSGSNTYYADSVKGRFTISRDNSKNTLYLQMNSLRAEDTAVYYCARVGYYYGFDYWGQGTLVTVSS VL: DIELTQPPSVSVAPGQTARISCSGDALRKHYVYWYQQKPGQAPVLVIYGDNNRPSGIPERFSGSNSGNTATLTISGTQAEDEADYYCQSYDKPYPILVFGGGTKLTVLG |
| binds | TP-3B3 (Fab, V domains shown, HuCAL Gold human Fab from E. coli TG1) VH: QVQLVESGGGLVQPGGSLRLSCAASGFTFSSYGMHWVRQAPGKGLEWVSNISYMGSNTNYADSVKGRFTISRDNSKNTLYLQMNSLRAEDTAVYYCARGLFPGYFDYWGQGTLVTVSS VL: DIELTQPASVSVAPGQTARISCSGDNLRSKYAHWYQQKPGQAPVLVIYGDNNRPSGIPERFSGSNSGNTATLTISGTQAEDEADYYCSAYAMGSSPVFGGGTKLTVLG |
| binds | TP-3A2 (Fab, V domains shown, HuCAL Gold human Fab from E. coli TG1) VH: QVQLVESGGGLVQPGGSLRLSCAASGFTFSNYYLSWVRQAPGKGLEWVSGISYNGSSTNYADSVKGRFTISRDNSKNTLYLQMNSLRAEDTAVYYCARMWRYSLGADSWGQGTLVTVSS VL: DIELTQPPSVSVAPGQTARISCSGDNIGSRYAYWYQQKPGQAPVVVIYDDSDRPSGIPERFSGSNSGNTATLTISGTQAEDEADYYCAAYTFYARTVFGGGTKLTVLG |
| binds | TP-2G9 (Fab, V domains shown, HuCAL Gold human Fab from E. coli TG1) VH: QVQLVESGGGLVQPGGSLRLSCAASGFTFNSYAMTWVRQAPGKGLEWVSAIKSDGSNTYYADSVKGRFTISRDNSKNTLYLQMNSLRAEDTAVYYCARNDSGWFDVWGQGTLVTVSS VL: DIALTQPASVSGSPGQSITISCTGTSSDLGGFNTVSWYQQHPGKAPKLMIYSVSSRPSGVSNRFSGSKSGNTASLTISGLQAEDEADYYCQSYDLNNLVFGGGTKLTVLG |
| binds | TP-3C1 (Fab, V domains shown, HuCAL Gold human Fab from E. coli TG1; Shares its VL entry with TP-2G9 and its VH entry with TP-3F2, as the legends print it) VH: QVQLVESGGGLVQPGGSLRLSCAASGFTFSSYSMHWVRQAPGKGLEWVSGISYSSSFTYYADSVKGRFTISRDNSKNTLYLQMNSLRAEDTAVYYCARALGGGVDYWGQGTLVTVSS VL: DIALTQPASVSGSPGQSITISCTGTSSDLGGFNTVSWYQQHPGKAPKLMIYSVSSRPSGVSNRFSGSKSGNTASLTISGLQAEDEADYYCQSYDLNNLVFGGGTKLTVLG |
| binds | TP-2C1 (Fab, V domains shown, HuCAL Gold human Fab from E. coli TG1) VH: QVQLVESGGGLVQPGGSLRLSCAASGFTFSPYVMSWVRQAPGKGLEWVSSISSSSSNTYYADSVKGRFTISRDNSKNTLYLQMNSLRAEDTAVYYCARGDSYMYDVWGQGTLVTVSS VL: DIELTQPPSVSVAPGQTARISCSGDSIGSYYAHWYQQKPGQAPVLVIYYDSKRPSGIPERFSGSNSGNTATLTISGTQAEDEADYYCQAYTGQSISRVFGGGTKLTVLG |
| binds | TP-2B9 (Fab, V domains shown, HuCAL Gold human Fab from E. coli TG1) VH: QVQLQQSGPGLVKPSQTLSLTCAISGDSVSSNSAAWGWIRQSPGRGLEWLGMIYHRSKWYNDYAVSVKSRITINPDTSKNQFSLQLNSVTPEDTAVYYCARYSSIGHMDYWGQGTLVTVSS VL: DIQMTQSPSSLSASVGDRVTITCRASQSIRSYLAWYQQKPGKAPKLLIYKASNLQSGVPSRFSGSGSGTDFTLTISSLQPEDFAVYYCHQYSDSPVTFGQGTKVEIKR |
| binds | TP-2E3 (Fab, V domains shown, HuCAL Gold human Fab from E. coli TG1) VH: QVQLQQSGPGLVKPSQTLSLTCAISGDSVSSNSAAWGWIRQSPGRGLEWLGMIYYRSKWYNDYAVSVKSRITINPDTSKNQFSLQLNSVTPEDTAVYYCARVNQYTSSDYWGQGTLVTVSS VL: DIALTQPASVSGSPGQSITISCTGTSSDIGGYNYVSWYQQHPGKAPKLMIYGVNYRPSGVSNRFSGSKSGNTASLTISGLQAEDEADYYCSSADKFTMSIVFGGGTKLTVLG |
| binds | TP-2H10 (Fab, V domains shown, HuCAL Gold human Fab from E. coli TG1) VH: QVQLQQSGPGLVKPSQTLSLTCAISGDSVSSNGAAWGWIRQSPGRGLEWLGFIYRRSKWYNSYAVSVKSRITINPDTSKNQFSLQLNSVTPEDTAVYYCARQDGMGGMDSWGQGTLVTVSS VL: not shown |
| binds | TP-2G5 (Fab, V domains shown, HuCAL Gold human Fab from E. coli TG1) VH: QVQLQQSGPGLVKPSQTLSLTCAISGDSVSSNSAAWSWIRQSPGRGLEWLGFIYYRSKWYNDYAVSVKSRITINPDTSKNQFSLQLNSVTPEDTAVYYCARHNPDLGFDYWGQGTLVTVSS VL: not shown |
| binds | TP-3C2 (Fab, V domains shown, HuCAL Gold human Fab from E. coli TG1) VH: QVQLQQSGPGLVKPSQTLSLTCAISGDSVSSSSAAWSWIRQSPGRGLEWLGMIYYRSKWYNHYAVSVKSRITINPDTSKNQFSLQLNSVTPEDTAVYYCARGGSGVMDVWGQGTLVTVSS VL: DIQMTQSPSSLSASVGDRVTITCRASQSITNYLNWYQQKPGKAPKLLIYDVSNLQSGVPSRFSGSGSGTDFTLTISSLQPEDFAVYYCQQYSGYPLTFGQGTKVEIKR |
| binds | TP-2A2 (Fab, V domains shown, HuCAL Gold human Fab from E. coli TG1) VH: QVQLVESGGGLVQPGGSLRLSCAASGFTFSNNAMNWVRQAPGKGLEWVSTISYDGSNTYYADSVKGRFTISRDNSKNTLYLQMNSLRAEDTAVYYCARQAGGWTYSYTDVWGQGTLVTVSS VL: DIELTQPPSVSVAPGQTARISCSGDNIRTYYVHWYQQKPGQAPVVVIYGDSKRPSGIPERFSGSNSGNTATLTISGTQAEDEADYYCQSYDSEADSEVFGGGTKLTVLG |
| binds | TP-2G7 (Fab, V domains shown, HuCAL Gold human Fab from E. coli TG1) VH: QVQLVESGGGLVQPGGSLRLSCAASGFTFNSYAMSWVRQAPGKGLEWVSNISSNSSNTYYADSVKGRFTISRDNSKNTLYLQMNSLRAEDTAVYYCARKGGGEHGFFPSDIWGQGTLVTVSS VL: DIELTQPPSVSVAPGQTARISCSGDNLGTYYVHWYQQKPGQAPVLVIYGDNNRPSGIPERFSGSNSGNTATLTISGTQAEDEADYYCQTYDSNNESIVFGGGTKLTVLG |
| binds | TP-2F9 (Fab, V domains shown, HuCAL Gold human Fab from E. coli TG1) VH: QVQLVESGGGLVQPGGSLRLSCAASGFTFYKYAMHWVRQAPGKGLEWVSGIQYDGSYTYYADSVKGRFTISRDNSKNTLYLQMNSLRAEDTAVYYCARYYCKCVDLWGQGTLVTVSS VL: not shown |
| binds | TP-2D7 (Fab, V domains shown, HuCAL Gold human Fab from E. coli TG1) VH: QVQLQQSGPGLVKPSQTLSLTCAISGDSVSSNSAAWGWIRQSPGRGLEWLGLIYYRSKWYNDYAVSVKSRITINPDTSKNQFSLQLNSVTPEDTAVYYCARFGDTNRNGTDVWGQGTLVTVSS VL: not shown |
| binds | TP-3C3 (Fab, V domains shown, HuCAL Gold human Fab from E. coli TG1) VH: QVQLQQSGPGLVKPSQTLSLTCAISGDSVSSNSAAWGWIRQSPGRGLEWLGVIYYRSKWYNDYAVSVKSRITINPDTSKNQFSLQLNSVTPEDTAVYYCARARAKKSGGFDYWGQGTLVTVSS VL: DIQMTQSPSSLSASVGDRVTITCRASQSINPYLNWYQQKPGKAPKLLIYAASNLQSGVPSRFSGSGSGTDFTLTISSLQPEDFAVYYCQQLDNRSITFGQGTKVEIKR |
| binds | TP-2E5 (Fab, V domains shown, HuCAL Gold human Fab from E. coli TG1) VH: QVQLQQSGPGLVKPSQTLSLTCAISGDSVSSNSAAWSWIRQSPGRGLEWLGMIFYRSKWNNDYAVSVKSRITINPDTSKNQFSLQLNSVTPEDTAVYYCARVNANGYYAYVDLWGQGTLVTVSS VL: DIQMTQSPSSLSASVGDRVTITCRASQPIYNSLSWYQQKPGKAPKLLIYGVSNLQSGVPSRFSGSGSGTDFTLTISSLQPEDFAVYYCLQVDNLPITFGQGTKVEIKR |
| binds | TP-3A4 (Fab, V domains shown, HuCAL Gold human Fab from E. coli TG1) VH: QVQLVESGGGLVQPGGSLRLSCAASGFTFSSYWMHWVRQAPGKGLEWVSSISYDSSNTYYADSVKGRFTISRDNSKNTLYLQMNSLRAEDTAVYYCARYGGMDYWGQGTLVTVSS VL: DIELTQPPSVSVAPGQTARISCSGDNLRDKYASWYQQKPGQAPVLVIYSKSERPSGIPERFSGSNSGNTATLTISGTQAEDEADYYCSSYTLNPNLNYVFGGGTKLTVLG |
| binds | TP-2G2 (Fab, V domains shown, HuCAL Gold human Fab from E. coli TG1) VH: QVQLVESGGGLVQPGGSLRLSCAASGFTFSSYAMNWVRQAPGKGLEWVSAILSDGSSTSYADSVKGRFTISRDNSKNTLYLQMNSLRAEDTAVYYCARYPDWGWYTDVWGQGTLVTVSS VL: DIELTQPPSVSVAPGQTARISCSGDNIRKFYVHWYQQKPGQAPVLVIYGTNKRPSGIPERFSGSNSGNTATLTISGTQAEDEADYYCQSYDSKFNTVFGGGTKLTVLG |
| binds | TP-3A3 (Fab, V domains shown, HuCAL Gold human Fab from E. coli TG1) VH: QVQLVESGGGLVQPGGSLRLSCAASGFTFNNNAISWVRQAPGKGLEWVSAINSSSSSTSYADSVKGRFTISRDNSKNTLYLQMNSLRAEDTAVYYCARGHHRGHSWASFIDYWGQGTLVTVSS VL: DIELTQPPSVSVAPGQTARISCSGDNIGSKYVHWYQQKPGQAPVVVIYEDSDRPSGIPERFSGSNSGNTATLTISGTQAEDEADYYCQSWDKSEGYVFGGGTKLTVLG |
| binds | TP-3F2 (Fab, V domains shown, HuCAL Gold human Fab from E. coli TG1) VH: QVQLVESGGGLVQPGGSLRLSCAASGFTFSSYSMHWVRQAPGKGLEWVSGISYSSSFTYYADSVKGRFTISRDNSKNTLYLQMNSLRAEDTAVYYCARALGGGVDYWGQGTLVTVSS VL: DIELTQPPSVSVAPGQTARISCSGDNLPSKSVYWYQQKPGQAPVLVIYGDNNRPSGIPERFSGSNSGNTATLTISGTQAEDEADYYCQSWTSRPMVVFGGGTKLTVLG |
